# Experimental data: article PMC4474532 (The EMBO Journal, 2015)
# B1: mouse PERK luminal domain (residues 101–399) (domain or fragment, UniProt Q9Z2B5 101-399, looked up)
# chain: LVIISTLDGRIAALDAENDGKKQWDLDVGSGSLVSSSLSKPEVFGNKMIIPSLDGDLFQWDRDRESMEAVPFTVESLLESSYKFGDDVVLVGGKSLITYGLSAYSGKLRYICSALGCRRWDSDEMEEEEDILLLQRTQKTVRAVGPRSGSEKWNFSVGHFELRYIPDMETRAGFIESTFKPGGNKEDSKIISDVEEQEATMLDTVIKVSVADWKVMAFSRKGGRLEWEYQFCTPIASAWLVRDGKVIPISLFDDTSYTASEEALGDEEDIVEAARGATENSVYLGMYRGQLYLQSSVRV
# B2: human PERK luminal domain (residues 105–403) (domain or fragment, UniProt Q9NZJ5 105-403, looked up)
# chain: LVIISTLDGRIAALDPENHGKKQWDLDVGSGSLVSSSLSKPEVFGNKMIIPSLDGALFQWDQDRESMETVPFTVESLLESSYKFGDDVVLVGGKSLTTYGLSAYSGKVRYICSALGCRQWDSDEMEQEEDILLLQRTQKTVRAVGPRSGNEKWNFSVGHFELRYIPDMETRAGFIESTFKPNENTEESKIISDVEEQEAAIMDIVIKVSVADWKVMAFSKKGGHLEWEYQFCTPIASAWLLKDGKVIPISLFDDTSYTSNDDVLEDEEDIVEAARGATENSVYLGMYRGQLYLQSSVRI
# Key:
# [1] = molecular target: the molecule itself; test: AUC; sedimentation velocity, 20°C, PERK LD proteins at 30 μM; 50 mM HEPES pH 7.8, 200 mM NaCl, 2 mM TCEP; c(s) by Sedfit; dimer to tetramer equilibrium
# [2] = molecular target: the molecule itself; test: crystal structure; mouse PERK LD, untagged, 20 mg/ml, hanging drops, 0.1 M MES/imidazole pH 6.5, NPS mix, 12.5% PEG1000, 12.5% PEG3350, 20% MPD, 18°C; 3.3 Å
# [3] = molecular target: the molecule itself; test: crystal structure; human PERK LD, untagged, 5 mg/ml, hanging drops, 0.1 M Tris pH 8.5, 0.2 M MgCl2, 25% w/v PEG3350, 7% glycerol, 18°C; tungstate MAD; 3.1 Å
# [4] = molecular target: the molecule itself; test: SAXS; H. sapiens PERK LD 1.25 mg/ml (results: 1–5 mg/ml); 50 mM HEPES pH 7.8, 200 mM NaCl, 2 mM TCEP; profiles computed from the crystal structures fitted with OLIGOMER
Protein,dimer to tetramer ratio [1],stoichiometry N [1],stoichiometry N [2],stoichiometry N [3],dimer to tetramer ratio [4],stoichiometry N [4]
B1,~1.5 dimer:tetramer,4,2,,,
B2,,,,4,1.5 dimer:tetramer,2
